In paper PMC12650317 (Biomolecules, 2025):

T1: BVDV NS3 recombinant protein (Bovine viral diarrhea virus 1, RefSeq …)
T1 chain: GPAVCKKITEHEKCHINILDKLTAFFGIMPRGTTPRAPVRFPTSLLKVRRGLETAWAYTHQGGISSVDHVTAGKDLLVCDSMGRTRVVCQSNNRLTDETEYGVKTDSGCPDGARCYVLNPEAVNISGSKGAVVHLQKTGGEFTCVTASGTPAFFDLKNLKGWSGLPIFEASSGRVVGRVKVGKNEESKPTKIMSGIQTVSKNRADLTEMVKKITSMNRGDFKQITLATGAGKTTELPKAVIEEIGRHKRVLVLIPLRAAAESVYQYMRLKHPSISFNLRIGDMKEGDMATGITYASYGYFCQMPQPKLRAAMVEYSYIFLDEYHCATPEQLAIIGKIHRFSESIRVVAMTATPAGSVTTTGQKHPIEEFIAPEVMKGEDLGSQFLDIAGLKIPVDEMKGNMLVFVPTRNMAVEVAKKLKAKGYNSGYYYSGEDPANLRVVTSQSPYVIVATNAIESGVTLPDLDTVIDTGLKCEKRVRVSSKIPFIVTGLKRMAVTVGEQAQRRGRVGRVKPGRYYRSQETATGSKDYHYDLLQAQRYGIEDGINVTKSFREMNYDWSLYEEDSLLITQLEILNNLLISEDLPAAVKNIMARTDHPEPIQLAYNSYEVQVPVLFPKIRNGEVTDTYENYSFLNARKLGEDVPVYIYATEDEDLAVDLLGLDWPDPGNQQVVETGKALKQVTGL

B1: Nb15 (VHH)
VHH: QVQLQESGGGLVQPGGSLRLSCAASGGSLTYYCMAWFRQTPGKEREWVSCISNYGFTINYADSVKGRFSISRDNAKNTVYLAMHIPEPEDTGVYVCADLSFEHLYYCSTAQSEGSEWGQGTQVTVSS
notes: also called nanobody Nb15
B2: Nb22 (VHH)
VHH: QVQLQESGGGLVQPGGSLRLSCRASGYTSCMAWFRQAPKEREGVASINSDGSTAYADSVQGRFTISRDNTMNTLYLQMNSLKPEDTAMYYCAAERPSSCLPRNIWVDTNYWGQGTQVTVSS
notes: also called nanobody Nb22
B3: Nb11 (VHH)
VHH: QVQLQESGGGSVQPGGSRRLSCEGSGETLGYRRQTWFRQAPGKEREGVSCISSLDDGTYYKDSVKGRFTISRDNANKMVYLQMNSLEPEDTAIYYCAADPERSSYSGPLGSLGYSYWGQGTQVTVSS
notes: also called nanobody Nb11
B4: Nb10 (VHH)
VHH: QVQLQESGGGLVQPGGSLRLSCAASGETARSGACGWFRQAPGKEREGVASINRYGFRTYADSVKGRFTISTDNAKNTVDLQMSNLRPEDTAAYYCAADSLTFWSAPCCSSTSPGTWGQGTQVTVSS
notes: also called nanobody Nb10
B5: Nb19 (VHH)
VHH: QVQLQESGGGLVQPGGSLRLSCAASGFTFQTYSMGWVRQAPGKGLEWVSSISGDGSTYYSDSVKGRFTISTDNANTLYLQMNSLKSEDTAVYYCAKERSPADYRNWLMPYWGKGTLVTVSS
notes: also called nanobody Nb19

Legend:
[1] = target: BVDV NS5A recombinant protein (Bovine viral diarrhea virus 1, RefSeq …, UniProt P19711); experiment: ELISA; indirect ELISA (i-ELISA); NS3 or NS5A coated on 96-well plates (10 ug/mL for the panning and serum ELISA); OD450 read; nanobody targeting PRRSV as negative control
[2] = target: T1, BVDV NS3 recombinant protein; experiment: as above

BVDV NS5A recombinant protein, sequence (P19711 2774-3269): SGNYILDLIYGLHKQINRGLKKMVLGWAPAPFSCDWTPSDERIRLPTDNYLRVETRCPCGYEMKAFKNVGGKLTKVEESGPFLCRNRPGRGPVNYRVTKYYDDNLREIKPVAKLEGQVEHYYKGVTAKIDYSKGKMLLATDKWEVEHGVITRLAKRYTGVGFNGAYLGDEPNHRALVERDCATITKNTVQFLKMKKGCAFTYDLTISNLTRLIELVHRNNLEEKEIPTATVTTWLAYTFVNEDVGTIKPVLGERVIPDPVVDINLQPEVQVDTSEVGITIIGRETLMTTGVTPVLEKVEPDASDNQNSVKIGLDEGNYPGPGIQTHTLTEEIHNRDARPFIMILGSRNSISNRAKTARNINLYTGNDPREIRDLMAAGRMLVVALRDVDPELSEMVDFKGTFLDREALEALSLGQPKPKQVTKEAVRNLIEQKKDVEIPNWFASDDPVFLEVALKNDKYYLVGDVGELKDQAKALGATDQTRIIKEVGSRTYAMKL

| Binder | binding result [1] | binding result [2] |
| --- | --- | --- |
| B1 | binds |  |
| B2 |  | binds |
| B3 | binds |  |
| B4 | binds |  |
| B5 |  | binds |
